# ± gives the standard deviation of the averaged measurements.
# Test system: ATP
# Assay: switch fluorescence ratio, 500 uM ATP over buffer (Cy3 cluster intensity, sum of 5 cycles each) (fold (ratio)); higher = stronger signal-on switching upon ATP binding; sequences stand for … in TCGTCGGCAGCGTCAGATGTGTATAAGAGACAGTTTTTTTTTTTTTTTTTTTTTTTTT…TC
# Settings: aptamer strand: ATP DNA aptamer (quencher-CACCTGGGGGAGTATTGCGGAGGAAGG + anchor), 100 nM annealed; ATP concentration: 500 uM
# Summary of the method: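 The quencher-labelled ATP aptamer, at 100 nM, was annealed to Cy3-labelled switching-strand clusters on a modified Illumina MiSeq flow-cell. The clusters were imaged in selection buffer, then after 15 min with 500 uM ATP at 22 °C, and this buffer/ATP cycle ran five times with NaOH stripping and re-annealing between runs. Per-cluster fluorescence ratios, summed target-cycle over summed buffer-cycle Cy3 intensity, were averaged per switch-domain sequence. Clusters outside 100-1000 RFU were excluded.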
# 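Note: ATP exposure 15 min at 22 °C before imaging.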
row,Sequence,switch fluorescence ratio
1,TTGATGTTCG,0.976 ± 0.015
2,TTGATTAGTT,0.982 ± 0.036
3,TTGATTATTA,1.02 ± 0.045
4,TTGATTCTGA,0.992 ± 0.034
5,TTGATTGAGG,1 ± 0.017
6,TTGATTGGAT,1 ± 0.014
7,TTGATTGGGC,0.989 ± 0.025
8,TTGATTGTTT,0.987 ± 0.016
9,TTGATTTACT,0.993 ± 0.03
10,TTGATTTGTG,0.997 ± 0.012
11,TTGATTTTAG,1 ± 0.031
12,TTGCAATTTA,1.06 ± 0.033
13,TTGCAGGGGT,1.14 ± 0.25
14,TTGCAGGGTG,1.17 ± 0.035
15,TTGCATGGGT,1.01 ± 0.039
16,TTGCCAGGGA,0.995 ± 0.014
17,TTGCCATCCT,0.98 ± 0.042
18,TTGCGAGGTG,1.039 ± 0.0055
19,TTGCGATATT,1.27 ± 0.36
20,TTGCGGCTTG,0.9923 ± 0.0088
21,TTGCGGTAGC,1 ± 0.016
22,TTGCGTATGA,1.04 ± 0.063
23,TTGCGTGCCG,0.98 ± 0.11
24,TTGCGTGCTT,1.01 ± 0.027
25,TTGCGTTTTT,1 ± 0.024

row,Sequence,switch fluorescence ratio
1,TTGCTACATA,1.07 ± 0.011
2,TTGCTATAGA,1.01 ± 0.017
3,TTGCTATATT,1.01 ± 0.032
4,TTGCTATTTC,1 ± 0.058
5,TTGCTCTGGA,1.02 ± 0.015
6,TTGCTGAGGA,0.962 ± 0.015
7,TTGCTGTGTG,1.011 ± 0.0042
8,TTGCTTTAGA,0.974 ± 0.012
9,TTGCTTTTGG,1.04 ± 0.11
10,TTGGAAATTA,1.036 ± 0.0082
11,TTGGAACATA,0.986 ± 0.03
12,TTGGAAGGGC,1.012 ± 0.0063
13,TTGGACGCCG,1.07 ± 0.041
14,TTGGAGAAA,1.27 ± 0.36
15,TTGGAGATTT,1.02 ± 0.022
16,TTGGAGGAGA,1.029 ± 0.005
17,TTGGAGGGGA,1.01 ± 0.018
18,TTGGATAGAG,0.996 ± 0.013
19,TTGGATAGGT,0.981 ± 0.027
20,TTGGATATGT,0.9573 ± 0.0047
21,TTGGATGGGA,1 ± 0.034
22,TTGGATTAAC,1.01 ± 0.029
23,TTGGATTTGG,1.02 ± 0.051
24,TTGGATTTTT,0.992 ± 0.041
25,TTGGCAAAGG,1.1 ± 0.19

row,Sequence,switch fluorescence ratio
1,TTGGCAACTT,1.03 ± 0.03
2,TTGGCAGATT,1.004 ± 0.0061
3,TTGGCATAGT,0.989 ± 0.031
4,TTGGCATCCT,1.0176 ± 0.00051
5,TTGGCATTTG,1.02 ± 0.064
6,TTGGCCACCG,1.08 ± 0.096
7,TTGGCCCGGG,1.01 ± 0.059
8,TTGGCCTTTT,1.09 ± 0.12
9,TTGGCGAGGA,1.003 ± 0.0024
10,TTGGCGCTTG,1.02 ± 0.025
11,TTGGCTCTGG,0.987 ± 0.02
12,TTGGCTCTTT,1.01 ± 0.02
13,TTGGCTTAG,0.999 ± 0.014
14,TTGGCTTGGG,1.01 ± 0.043
15,TTGGCTTTTT,1.01 ± 0.015
16,TTGGGAAATT,1.02 ± 0.04
17,TTGGGAACAT,1 ± 0.016
18,TTGGGAAGGC,0.972 ± 0.035
19,TTGGGAATAA,1.02 ± 0.0046
20,TTGGGAATTT,0.975 ± 0.019
21,TTGGGAGAAA,0.9804 ± 0.0092
22,TTGGGAGTTA,0.99379 ± 0.00026
23,TTGGGATGAG,1 ± 0.019
24,TTGGGATGTT,0.9904 ± 0.009
25,TTGGGATTGG,0.968 ± 0.018

row,Sequence,switch fluorescence ratio
1,TTGGGCAACT,1.06 ± 0.07
2,TTGGGCACTG,0.974 ± 0.013
3,TTGGGCACTT,0.997 ± 0.068
4,TTGGGCATGG,1.02 ± 0.048
5,TTGGGCATTG,1.01 ± 0.017
6,TTGGGCCCGC,1.007 ± 0.0012
7,TTGGGCCGTT,1.01 ± 0.035
8,TTGGGCCTCT,1.01 ± 0.029
9,TTGGGCGACG,1.036 ± 0.0032
10,TTGGGCGCGG,1 ± 0.031
11,TTGGGCTGGG,1.01 ± 0.026
12,TTGGGCTTTC,1.04 ± 0.03
13,TTGGGGAACA,1.014 ± 0.008
14,TTGGGGAACG,1.41 ± 0.62
15,TTGGGGAAGA,1.02 ± 0.029
16,TTGGGGATGC,1.33 ± 0.23
17,TTGGGGCCCA,1 ± 0.022
18,TTGGGGCCGG,1.003 ± 0.0095
19,TTGGGGGATG,0.985 ± 0.0088
20,TTGGGGGCAA,1.57 ± 0.84
21,TTGGGGGGAG,0.99 ± 0.027
22,TTGGGGGGTG,1.04 ± 0.14
23,TTGGGGTAAT,1.01 ± 0.022
24,TTGGGGTACA,0.9895 ± 0.0051
25,TTGGGGTAGC,1.01 ± 0.036

row,Sequence,switch fluorescence ratio
1,TTGGGGTATT,1.01 ± 0.025
2,TTGGGGTGAG,0.981 ± 0.022
3,TTGGGGTGCA,0.99 ± 0.018
4,TTGGGGTTAA,1.03 ± 0.058
5,TTGGGGTTCA,0.9752 ± 0.0084
6,TTGGGGTTTG,0.975 ± 0.038
7,TTGGGTAATA,1.05 ± 0.087
8,TTGGGTATGA,1.01 ± 0.037
9,TTGGGTCCAA,0.983 ± 0.017
10,TTGGGTGATC,1.01 ± 0.049
11,TTGGGTGCTA,1.09 ± 0.16
12,TTGGGTGCTG,1.01 ± 0.032
13,TTGGGTGGGA,0.986 ± 0.044
14,TTGGGTGGGG,1 ± 0.049
15,TTGGGTGTCT,0.988 ± 0.057
16,TTGGGTGTGC,1.02 ± 0.061
17,TTGGGTTCGG,0.987 ± 0.038
18,TTGGGTTCGT,0.998 ± 0.037
19,TTGGGTTCTT,0.9937 ± 0.0066
20,TTGGGTTGTG,1.01 ± 0.041
21,TTGGTAAAGT,1.03 ± 0.071
22,TTGGTAGAAT,1.01 ± 0.014
23,TTGGTATACG,0.997 ± 0.026
24,TTGGTATAGC,1.003 ± 0.01
25,TTGGTATTAT,0.986 ± 0.02

row,Sequence,switch fluorescence ratio
1,TTGGTCAATC,1.04 ± 0.024
2,TTGGTGCCGT,1.13 ± 0.046
3,TTGGTGCTTG,1 ± 0.041
4,TTGGTGGCTT,0.968 ± 0.03
5,TTGGTGGGGA,0.987 ± 0.042
6,TTGGTGGGGC,0.98 ± 0.02
7,TTGGTGTGTT,1.01 ± 0.013
8,TTGGTGTTGG,1.01 ± 0.044
9,TTGGTTACGT,1 ± 0.039
10,TTGGTTATAC,1.12 ± 0.046
11,TTGGTTCAAG,1.013 ± 0.0027
12,TTGGTTCCGT,1.01 ± 0.026
13,TTGGTTCGGA,0.993 ± 0.015
14,TTGGTTCTGG,0.962 ± 0.038
15,TTGGTTGAGG,0.974 ± 0.02
16,TTGGTTGGGT,0.997 ± 0.041
17,TTGGTTGGTG,1.03 ± 0.11
18,TTGGTTTAAG,1 ± 0.027
19,TTGGTTTGCT,1.005 ± 0.0045
20,TTGGTTTGGC,1.01 ± 0.019
21,TTGTAAAATG,0.996 ± 0.013
22,TTGTAATGAG,1.04 ± 0.065
23,TTGTAATGGG,0.988 ± 0.019
24,TTGTACGCCC,1.24 ± 0.2
25,TTGTACTTGG,1.04 ± 0.072

row,Sequence,switch fluorescence ratio
1,TTGTAGAGCT,0.949 ± 0.017
2,TTGTAGGGAA,1.03 ± 0.013
3,TTGTAGGGGA,1.04 ± 0.06
4,TTGTAGTTG,0.9952 ± 0.0062
5,TTGTAGTTTG,0.977 ± 0.0071
6,TTGTATATTT,0.982 ± 0.02
7,TTGTATCTTT,1.03 ± 0.011
8,TTGTATGTAG,1.02 ± 0.021
9,TTGTATTGGT,1.04 ± 0.11
10,TTGTCACAGG,1.09 ± 0.056
11,TTGTCACGGG,1.02 ± 0.05
12,TTGTCAGACT,0.9801 ± 0.0028
13,TTGTCATGGG,0.958 ± 0.011
14,TTGTCATTGG,0.992 ± 0.019
15,TTGTCATTTA,0.992 ± 0.031
16,TTGTCCTAGT,1.008 ± 0.0012
17,TTGTCCTCCT,1.11 ± 0.11
18,TTGTCCTGGG,1.02 ± 0.012
19,TTGTCGGGTG,1.03 ± 0.089
20,TTGTCTTTGG,1.01 ± 0.041
21,TTGTGAAGGC,1.04 ± 0.015
22,TTGTGAAGGG,0.9663 ± 0.0013
23,TTGTGAATTT,1.28 ± 0.43
24,TTGTGACATA,1 ± 0.023
25,TTGTGAGGCA,1.006 ± 0.0066

row,Sequence,switch fluorescence ratio
1,TTGTGCGCAG,1 ± 0.029
2,TTGTGCGGGT,1.02 ± 0.049
3,TTGTGGCGTT,0.984 ± 0.0045
4,TTGTGGGAAA,1.02 ± 0.016
5,TTGTGGGAAG,0.976 ± 0.034
6,TTGTGGGGAA,1.12 ± 0.2
7,TTGTGGGGAG,0.97 ± 0.024
8,TTGTGGGGTT,0.984 ± 0.048
9,TTGTGGGTAG,1.02 ± 0.043
10,TTGTGGTGAG,0.987 ± 0.016
11,TTGTGTGTAG,1.04 ± 0.033
12,TTGTGTGTTA,0.9687 ± 0.0052
13,TTGTGTTGGT,0.999 ± 0.041
14,TTGTGTTTAC,1.07 ± 0.11
15,TTGTTAATGA,0.979 ± 0.046
16,TTGTTAATTG,1.01 ± 0.041
17,TTGTTACTCG,0.976 ± 0.048
18,TTGTTAGGGT,0.958 ± 0.011
19,TTGTTAGGTT,1.06 ± 0.13
20,TTGTTCCGAT,1.02 ± 0.032
21,TTGTTCGCTT,1.03 ± 0.025
22,TTGTTCTAAC,1.0276 ± 0.00054
23,TTGTTCTGGG,0.972 ± 0.022
24,TTGTTGA,0.984 ± 0.042
25,TTGTTGCAGC,1.02 ± 0.035

# — the supplement of paper PMC10126150
